The Human Domainome abundance scans (Beltran et al. 2025)
± gives the uncertainty stated by the source.

B1: Androgen receptor, residues 557 to 632; numbered along this chain, P10275 (parent)
chain: QKTCLICGDEASGCHYGALTCGSCKVFFKRAAEGKQKYLCASRNDCTIDKFRRKNCPSCRLRKCYEAGMTLGARKL

Variants of: B1
Assay: abundance fitness (aPCA) (normalised: wild type 0, dead -1); higher = more abundant; growth selection in yeast, the domain comes from the species named
Settings: Homo sapiens

Point of comparison: QKTCLICGDEASGCHYGALTCGSCKVFFKRTAEGKQKYLCASRNDCTIDKFRRKNCPSCRLRKCYEAGMTLGARKL, abundance fitness 0.025 ± 0.064. Against it:
- QKTCLICGDEASGCHYGALTCGSCKVFFKRAAKGKQKYLCASRNDCTIDKFRRKNCPSCRLRKCYEAGMTLGARKL — within error, 0.013 ± 0.075
- QKTCLICGDEASGCHYGALTCGSCKVFFKRAAIGKQKYLCASRNDCTIDKFRRKNCPSCRLRKCYEAGMTLGARKL — within error, 0.03 ± 0.062
- QKTCLICGDEASGCHYGALTCGSCKVFFKRAARGKQKYLCASRNDCTIDKFRRKNCPSCRLRKCYEAGMTLGARKL — within error, -0.042 ± 0.043
- QKTCLICGDEASGCHYGALTCGSCKVFFKRAATGKQKYLCASRNDCTIDKFRRKNCPSCRLRKCYEAGMTLGARKL — within error, -0.058 ± 0.051
- QKTCLICGDEASGCHYGALTCGSCKVFFKRAAVGKQKYLCASRNDCTIDKFRRKNCPSCRLRKCYEAGMTLGARKL — lower, -0.089 ± 0.044
- QKTCLICGDEASGCHYGALTCGSCKVFFKRAAHGKQKYLCASRNDCTIDKFRRKNCPSCRLRKCYEAGMTLGARKL — lower, -0.153 ± 0.086
- QKTCLICGDEASGCHYGALTCGSCKVFFKRAAAGKQKYLCASRNDCTIDKFRRKNCPSCRLRKCYEAGMTLGARKL — lower, -0.121 ± 0.05
- QKTCLICGDEASGCHYGALTCGSCKVFFKRAAPGKQKYLCASRNDCTIDKFRRKNCPSCRLRKCYEAGMTLGARKL — lower, -0.135 ± 0.066
- QKTCLICGDEASGCHYGALTCGSCKVFFKRAACGKQKYLCASRNDCTIDKFRRKNCPSCRLRKCYEAGMTLGARKL — within error, 0.072 ± 0.071
- QKTCLICGDEASGCHYGALTCGSCKVFFKRAAQGKQKYLCASRNDCTIDKFRRKNCPSCRLRKCYEAGMTLGARKL — within error, 0.023 ± 0.075
- QKTCLICGDEASGCHYGALTCGSCKVFFKRAAWGKQKYLCASRNDCTIDKFRRKNCPSCRLRKCYEAGMTLGARKL — lower, -0.25 ± 0.082
- QKTCLICGDEASGCHYGALTCGSCKVFFKRAAFGKQKYLCASRNDCTIDKFRRKNCPSCRLRKCYEAGMTLGARKL — lower, -0.343 ± 0.069
- QKTCLICGDEASGCHYGALTCGSCKVFFKRAAGGKQKYLCASRNDCTIDKFRRKNCPSCRLRKCYEAGMTLGARKL — within error, 0.044 ± 0.042
- QKTCLICGDEASGCHYGALTCGSCKVFFKRAALGKQKYLCASRNDCTIDKFRRKNCPSCRLRKCYEAGMTLGARKL — lower, -0.173 ± 0.046
- QKTCLICGDEASGCHYGALTCGSCKVFFKRAAEGEQKYLCASRNDCTIDKFRRKNCPSCRLRKCYEAGMTLGARKL — within error, 0.084 ± 0.058
- QKTCLICGDEASGCHYGALTCGSCKVFFKRAAEGCQKYLCASRNDCTIDKFRRKNCPSCRLRKCYEAGMTLGARKL — within error, -0.007 ± 0.07
- QKTCLICGDEASGCHYGALTCGSCKVFFKRAAEGAQKYLCASRNDCTIDKFRRKNCPSCRLRKCYEAGMTLGARKL — lower, -0.093 ± 0.052
- QKTCLICGDEASGCHYGALTCGSCKVFFKRAAEGDQKYLCASRNDCTIDKFRRKNCPSCRLRKCYEAGMTLGARKL — within error, -0.118 ± 0.083
- QKTCLICGDEASGCHYGALTCGSCKVFFKRQAEGKQKYLCASRNDCTIDKFRRKNCPSCRLRKCYEAGMTLGARKL — within error, -0.075 ± 0.062
- QKTCLICGDEASGCHYGALTCGSCKVFFKRFAEGKQKYLCASRNDCTIDKFRRKNCPSCRLRKCYEAGMTLGARKL — lower, -0.214 ± 0.12
- QKTCLICGDEASGCHYGALTCGSCKVFFKRLAEGKQKYLCASRNDCTIDKFRRKNCPSCRLRKCYEAGMTLGARKL — lower, -0.225 ± 0.053
- QKTCLICGDEASGCHYGALTCGSCKVFFKREAEGKQKYLCASRNDCTIDKFRRKNCPSCRLRKCYEAGMTLGARKL — within error, -0.093 ± 0.068
- QKTCLICGDEASGCHYGALTCGSCKVFFKRCAEGKQKYLCASRNDCTIDKFRRKNCPSCRLRKCYEAGMTLGARKL — within error, -0.072 ± 0.062
- QKTCLICGDEASGCHYGALTCGSCKVFFKRHAEGKQKYLCASRNDCTIDKFRRKNCPSCRLRKCYEAGMTLGARKL — within error, -0.102 ± 0.079
- QKTCLICGDEASGCHYGALTCGSCKVFFKRNAEGKQKYLCASRNDCTIDKFRRKNCPSCRLRKCYEAGMTLGARKL — within error, -0.144 ± 0.14
- QKTCLICGDEASGCHYGALTCGSCKVFFKRSAEGKQKYLCASRNDCTIDKFRRKNCPSCRLRKCYEAGMTLGARKL — within error, -0.024 ± 0.059
- QKTCLICGDEASGCHYGALTCGSCKVFFKRMAEGKQKYLCASRNDCTIDKFRRKNCPSCRLRKCYEAGMTLGARKL — lower, -0.182 ± 0.082
- QKTCLICGDEASGCHYGALTCGSCKVFFKRVAEGKQKYLCASRNDCTIDKFRRKNCPSCRLRKCYEAGMTLGARKL — lower, -0.128 ± 0.056
- QKTCLICGDEASGCHYGALTCGSCKVFFKRPAEGKQKYLCASRNDCTIDKFRRKNCPSCRLRKCYEAGMTLGARKL — lower, -0.519 ± 0.17
- QKTCLICGDEASGCHYGALTCGSCKVFFKRIAEGKQKYLCASRNDCTIDKFRRKNCPSCRLRKCYEAGMTLGARKL — lower, -0.387 ± 0.17
- QKTCLICGDEASGCHYGALTCGSCKVFFKRGAEGKQKYLCASRNDCTIDKFRRKNCPSCRLRKCYEAGMTLGARKL — lower, -0.086 ± 0.045
- QKTCLICGDEASGCHYGALTCGSCKVFFKRDAEGKQKYLCASRNDCTIDKFRRKNCPSCRLRKCYEAGMTLGARKL — lower, -0.503 ± 0.15
- QKTCLICGDEASGCHYGALTCGSCKVFFKRRAEGKQKYLCASRNDCTIDKFRRKNCPSCRLRKCYEAGMTLGARKL — lower, -0.486 ± 0.06
- QKTCLICGDEASGCHYGALTCGSCKVFFKRYAEGKQKYLCASRNDCTIDKFRRKNCPSCRLRKCYEAGMTLGARKL — within error, 0.086 ± 0.067
- QKTCLICGDEASGCHYGALTCGSCKVFFKRKAEGKQKYLCASRNDCTIDKFRRKNCPSCRLRKCYEAGMTLGARKL — lower, -0.627 ± 0.18
